Assay results as given in paper PMC12212259 (2025).
Read-outs that look alike come from different tables or passages of the source.

Tests used:
Test in all cases: SPR
[1] = biological target: T1, Nb6E-biotin (biotin at the C terminus (sortagging))
[2] = biological target: T1, Nb6E-biotin; remark: listed apart in the source
[3] = biological target: T1, Nb6E-biotin; remark: listed apart in the source
[4] = biological target: Nb127–biotin (biotin at the C terminus (sortagging))
Nb127–biotin (biotin at the C terminus (sortagging)), sequence (VHH, as listed by the source): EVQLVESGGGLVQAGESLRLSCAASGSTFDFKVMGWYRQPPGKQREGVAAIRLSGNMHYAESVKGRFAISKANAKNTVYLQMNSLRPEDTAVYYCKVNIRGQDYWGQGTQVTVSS

T1 sequence (VHH, as listed by the source): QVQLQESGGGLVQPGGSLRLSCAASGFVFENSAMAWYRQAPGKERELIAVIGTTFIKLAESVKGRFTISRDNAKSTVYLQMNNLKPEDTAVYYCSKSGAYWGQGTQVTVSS

Q: How did the Kd [1] turn out when QADQEAKEMARQIS [6E-M9] was run?
A: 78.2 nM

Q: For QADQEAKELARQIS [6E-WT peptide], which Kd [1] is on record?
A: 159 nM

Q: GGGQADQEAKELARQIS [G3-6E] was tested. Which Kd [2] did it give?
A: 4.2 nM

Q: QADQEAWELARQIS [6E-W7] was tested. Which Kd [3] did it give?
A: 17.6 nM

Q: How did the Kd [4] turn out when SFEDFWKGED [127-tag peptide] was run?
A: 16.8 nM

Q: How did the Kd [3] turn out when QADQEAKWLARQIS [6E-W8] was run?
A: 9.2 nM

Q: Which Kd [3] does the source give for QADWEAKELARQIS [6E-W4] here?
A: 15.2 nM
